Data: patent US20100311659A1

What was measured:
[1] = system: FVIII-4A2 (quadruple mutant combining the A2 mutations 409, 462, 507, 629)
[2] = system: T1, wild-type FVIII (recombinant human factor VIII with deletion of the B domain)
T1 sequence: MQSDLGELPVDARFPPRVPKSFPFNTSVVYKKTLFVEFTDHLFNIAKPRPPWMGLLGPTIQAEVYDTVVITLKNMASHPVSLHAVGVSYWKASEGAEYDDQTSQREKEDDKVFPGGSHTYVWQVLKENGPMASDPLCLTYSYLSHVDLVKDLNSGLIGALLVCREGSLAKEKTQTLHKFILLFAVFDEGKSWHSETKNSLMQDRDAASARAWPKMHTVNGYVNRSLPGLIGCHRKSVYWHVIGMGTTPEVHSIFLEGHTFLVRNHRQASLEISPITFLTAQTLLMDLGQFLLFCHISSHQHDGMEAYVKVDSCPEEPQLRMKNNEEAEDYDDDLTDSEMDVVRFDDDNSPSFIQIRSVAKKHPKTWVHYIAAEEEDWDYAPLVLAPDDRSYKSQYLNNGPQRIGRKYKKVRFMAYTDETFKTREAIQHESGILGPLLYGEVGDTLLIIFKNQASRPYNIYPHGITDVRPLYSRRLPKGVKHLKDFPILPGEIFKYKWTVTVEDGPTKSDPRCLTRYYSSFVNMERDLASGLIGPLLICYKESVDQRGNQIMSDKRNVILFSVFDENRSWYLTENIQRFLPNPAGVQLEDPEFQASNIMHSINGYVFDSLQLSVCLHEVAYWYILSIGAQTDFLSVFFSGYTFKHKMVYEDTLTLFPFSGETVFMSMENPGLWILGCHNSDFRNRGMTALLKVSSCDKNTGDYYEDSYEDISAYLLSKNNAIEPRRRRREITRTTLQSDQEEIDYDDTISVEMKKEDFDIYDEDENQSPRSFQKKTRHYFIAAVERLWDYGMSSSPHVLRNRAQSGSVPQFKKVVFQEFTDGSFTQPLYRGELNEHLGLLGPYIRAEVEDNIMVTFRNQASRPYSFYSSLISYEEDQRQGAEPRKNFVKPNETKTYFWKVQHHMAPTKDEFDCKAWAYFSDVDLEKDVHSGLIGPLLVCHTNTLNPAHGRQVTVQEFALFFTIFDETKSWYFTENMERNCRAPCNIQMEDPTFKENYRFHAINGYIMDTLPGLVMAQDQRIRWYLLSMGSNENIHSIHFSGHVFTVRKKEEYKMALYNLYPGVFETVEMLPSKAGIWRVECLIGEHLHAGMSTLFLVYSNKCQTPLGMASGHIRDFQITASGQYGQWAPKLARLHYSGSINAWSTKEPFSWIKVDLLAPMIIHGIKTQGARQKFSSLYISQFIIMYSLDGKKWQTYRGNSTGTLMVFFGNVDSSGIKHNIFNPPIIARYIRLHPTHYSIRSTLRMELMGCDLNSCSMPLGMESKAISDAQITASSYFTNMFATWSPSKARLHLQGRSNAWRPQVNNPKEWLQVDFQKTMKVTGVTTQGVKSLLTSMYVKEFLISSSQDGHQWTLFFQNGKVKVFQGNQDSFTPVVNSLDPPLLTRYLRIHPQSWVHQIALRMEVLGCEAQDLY

Thrombin
activation by thrombin (FXa generation over time) [1]: FVIII-4A2 is identically recognized by thrombin as wild-type FVIII with a relative decrease of activity which might be caused by one of the four mutations
activation by thrombin (FXa generation over time) [2]: FVIII-4A2 is identically recognized by thrombin as wild-type FVIII with a relative decrease of activity which might be caused by one of the four mutations
